Reference: patent US20170349663A1 (Memorial Sloan Kettering, published 2017)

Molecular target: full-length human EphA2 protein on cells (human, UniProt P29317 24-976)
Test: cell-based or functional assay

Sequence of full-length human EphA2 protein on cells (P29317 24-976): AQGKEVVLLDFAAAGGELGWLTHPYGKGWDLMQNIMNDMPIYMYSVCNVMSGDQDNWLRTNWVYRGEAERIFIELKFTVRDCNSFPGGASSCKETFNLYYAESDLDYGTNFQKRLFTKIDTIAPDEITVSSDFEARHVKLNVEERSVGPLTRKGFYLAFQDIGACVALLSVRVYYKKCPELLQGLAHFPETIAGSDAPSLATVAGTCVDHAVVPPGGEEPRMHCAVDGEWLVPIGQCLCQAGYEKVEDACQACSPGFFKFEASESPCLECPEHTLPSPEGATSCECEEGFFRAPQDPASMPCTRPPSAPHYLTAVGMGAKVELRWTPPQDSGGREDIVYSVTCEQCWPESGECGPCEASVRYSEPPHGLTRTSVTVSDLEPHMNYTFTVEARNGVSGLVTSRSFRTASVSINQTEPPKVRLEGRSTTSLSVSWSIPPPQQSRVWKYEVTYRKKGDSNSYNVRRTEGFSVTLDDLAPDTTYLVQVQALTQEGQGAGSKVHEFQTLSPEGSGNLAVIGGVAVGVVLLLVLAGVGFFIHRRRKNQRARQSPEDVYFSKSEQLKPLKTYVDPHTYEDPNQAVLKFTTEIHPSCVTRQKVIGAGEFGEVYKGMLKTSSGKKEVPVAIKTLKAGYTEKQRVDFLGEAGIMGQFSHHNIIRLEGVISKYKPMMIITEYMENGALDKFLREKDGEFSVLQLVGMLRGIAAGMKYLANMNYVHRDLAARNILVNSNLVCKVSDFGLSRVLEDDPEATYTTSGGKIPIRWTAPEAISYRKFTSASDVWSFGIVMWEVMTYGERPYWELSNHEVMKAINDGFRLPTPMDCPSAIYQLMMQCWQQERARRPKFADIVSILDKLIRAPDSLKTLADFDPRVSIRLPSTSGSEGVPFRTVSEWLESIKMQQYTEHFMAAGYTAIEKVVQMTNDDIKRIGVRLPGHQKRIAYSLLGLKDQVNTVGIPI

decrease in cell number after 72 hours in culture relative to vehicle control treatment, 0.5 ug, EphA2-high AML cells: 52.6% | decrease in cell number after 72 hours in culture relative to vehicle control treatment, 1.0 ug, EphA2-high AML cells: 99.3%
B1: anti-EphA2 scFv antibody D2, monomeric scFv-6xHis (scFv)
scFv: EIVLTQSPGTLSLSPGERATLSCRASQSVSSSNLAWYQQKPGQAPRLLIYGASSRATGVPDRFSGSGSGTDFTLTISRLEPEDFAVYYCQQSSSYPWTFGQGTKVEIKRTGGGGSGAGGSGGGGTGGGGSEVQLLESGGGLVQPGGSLRLSCAASGFTFSRYWMHWVRQAPGKGLEWVSSISPYDGETNYADSVKGRFTISRDNSKNTLYLQMNSLRAEDTAVYYCARISEWYNWAVDVFDYWGQGTLVTVSSHHHHHH
